Read-outs that look alike come from different tables or passages of the source.
Columns and labels:
[1] = molecular target: the molecule itself; experiment: cryo-EM structure
[2] = molecular target: the molecule itself; experiment: cryo-EM structure; remark: listed apart in the source

Protein	stoichiometry N [1]	stoichiometry N [2]
human SOAT1 full-length (1-550), purified, tags removed (enzyme, UniProt P35610 1-550, looked up) MVGEEKMSLRNRLSKSRENPEEDEDQRNPAKESLETPSNGRIDIKQLIAKKIKLTAEAEELKPFFMKEVGSHFDDFVTNLIEKSASLDNGGCALTTFSVLEGEKNNHRAKDLRAPPEQGKIFIARRSLLDELLEVDHIRTIYHMFIALLILFILSTLVVDYIDEGRLVLEFSLLSYAFGKFPTVVWTWWIMFLSTFSVPYFLFQHWATGYSKSSHPLIRSLFHGFLFMIFQIGVLGFGPTYVVLAYTLPPASRFIIIFEQIRFVMKAHSFVRENVPRVLNSAKEKSSTVPIPTVNQYLYFLFAPTLIYRDSYPRNPTVRWGYVAMKFAQVFGCFFYVYYIFERLCAPLFRNIKQEPFSARVLVLCVFNSILPGVLILFLTFFAFLHCWLNAFAEMLRFGDRMFYKDWWNSTSYSNYYRTWNVVVHDWLYYYAYKDFLWFFSKRFKSAAMLAVFAVSAVVHEYALAVCLSFFYPVLFVLFMFFGMAFNFIVNDSRKKPIWNVLMWTSLFLGNGVLLCFYSQEWYARQHCPLKNPTFLDYVRPRSWTCRYVF	4	–
human SOAT1-dimer (66-550), purified, tags removed (domain or fragment, UniProt P35610 66-550, looked up) MKEVGSHFDDFVTNLIEKSASLDNGGCALTTFSVLEGEKNNHRAKDLRAPPEQGKIFIARRSLLDELLEVDHIRTIYHMFIALLILFILSTLVVDYIDEGRLVLEFSLLSYAFGKFPTVVWTWWIMFLSTFSVPYFLFQHWATGYSKSSHPLIRSLFHGFLFMIFQIGVLGFGPTYVVLAYTLPPASRFIIIFEQIRFVMKAHSFVRENVPRVLNSAKEKSSTVPIPTVNQYLYFLFAPTLIYRDSYPRNPTVRWGYVAMKFAQVFGCFFYVYYIFERLCAPLFRNIKQEPFSARVLVLCVFNSILPGVLILFLTFFAFLHCWLNAFAEMLRFGDRMFYKDWWNSTSYSNYYRTWNVVVHDWLYYYAYKDFLWFFSKRFKSAAMLAVFAVSAVVHEYALAVCLSFFYPVLFVLFMFFGMAFNFIVNDSRKKPIWNVLMWTSLFLGNGVLLCFYSQEWYARQHCPLKNPTFLDYVRPRSWTCRYVF	–	2

— publication doi:10.1101/2020.01.07.897124 (bioRxiv, 2020)
